In the RNAGym collection of RNA variant scans (doi:10.7554/elife.80360):

B1: CPEB3 Ribozyme (parent)
chain: GGGGGCCACAGCAGAAGCGUUCACGUCGCGGCCCCUGUCAGAUUCUGGUGAAUCUGCGAAUUCUGCUGU

Variants of: B1
Experiment: self-cleavage, relative activity (ratio to wild type); higher = more cleavage; co-transcriptional

| Variant | self-cleavage |
| --- | --- |
| G25U C33U | 0.137 |
| G25U C33G | 0.128 |
| G25U C33A | 0.175 |
| U26A A52C | 0.9 |
| U26A A52G | 0.825 |
| U26A A52U | 0.816 |
| G25U U69G | 0.183 |
| G25U U69C | 0.263 |
| G25A G30A | 0.155 |
| G25A G30C | 0.219 |
| G25U G31C | 0.191 |
| G25U G31U | 0.182 |
| G25U G31A | 0.163 |
| C24U G65U | 0.352 |
| C24U G65A | 0.39 |
| U26A | 0.907 |
| G25U C57G | 0.151 |
| G25U C57A | 0.137 |
| G25U C57U | 0.15 |
| G25A A60U | 0.188 |
| G25A A60G | 0.171 |
| G25C C63U | 0.136 |
| G25A U46A | 0.267 |
| G25A U46C | 0.216 |

| Variant | self-cleavage |
| --- | --- |
| G25A C57A | 0.223 |
| G25A C57U | 0.205 |
| G25U G58C | 0.107 |
| G25U G58A | 0.214 |
| G25A U62C | 0.19 |
| G25A U62A | 0.187 |
| C24U G41U | 0.461 |
| C24U G41A | 0.394 |
| G25C G56A | 0.143 |
| G25U U62C | 0.193 |
| G25C C35A | 0.141 |
| G25C C35U | 0.177 |
| G25U U49C | 0.157 |
| G25U U49G | 0.189 |
| G25C G50U | 0.216 |
| G25C G50A | 0.186 |
| G25C U53G | 0.106 |
| G25C U53C | 0.0815 |
| G25U C27G | 0.16 |
| G25C U69C | 0.333 |
| G25C C33U | 0.258 |
| G25C C33A | 0.307 |
| C24U G47U | 0.909 |
| C24U G47A | 0.869 |

| Variant | self-cleavage |
| --- | --- |
| G25U U64C | 0.103 |
| G25U U64A | 0.132 |
| G25A U44A | 0.138 |
| G25A U44G | 0.11 |
| G25A G68C | 0.195 |
| G25A G68U | 0.224 |
| G25A G68A | 0.222 |
| G25C U49A | 0.14 |
| G25C U49G | 0.11 |
| C24U U61C | 0.353 |
| C24U U61G | 0.397 |
| C24U U61A | 0.431 |
| G25U U55A | 0.154 |
| G25U U55G | 0.146 |
| G25U A52C | 0.246 |
| G25U A52U | 0.199 |
| G25U A52G | 0.146 |
| C24U G56C | 0.307 |
| C24U G56U | 0.528 |
| C24U G56A | 0.61 |
| G25U C32G | 0.158 |
| G25A U49C | 0.219 |
| G25A U49G | 0.207 |
| G25C A59G | 0.169 |

| Variant | self-cleavage |
| --- | --- |
| G25C A59U | 0.176 |
| G25C A59C | 0.193 |
| G25U C63U | 0.173 |
| G25U C63A | 0.129 |
| G25U U38G | 0.205 |
| G25U U67A | 0.145 |
| G25U U67C | 0.212 |
| G25U U67G | 0.237 |
| G25C A60G | 0.207 |
| G25C A60C | 0.149 |
| C24U U64C | 0.531 |
| C24U U64A | 0.42 |
| G25A G41C | 0.172 |
| G25A G41U | 0.197 |
| U26A C27G | 0.121 |
| U26A C27U | 0.429 |
| G25C C45G | 0.147 |
| G25C C45U | 0.141 |
| U26A A59G | 0.923 |
| U26A A59U | 0.404 |
| G25A C63U | 0.166 |
| G25A A59C | 0.157 |
| G25A A59G | 0.208 |
| G25A A59U | 0.17 |

| Variant | self-cleavage |
| --- | --- |
| G25C A52U | 0.158 |
| G25C A52G | 0.174 |
| G25C A52C | 0.182 |
| C24U G31U | 0.271 |
| G25U G65C | 0.105 |
| G25C U64A | 0.132 |
| G25U U61G | 0.149 |
| G25A C54G | 0.208 |
| G25A C54A | 0.203 |
| G25A A51U | 0.166 |
| G25A A51G | 0.22 |
| G25C G41C | 0.0934 |
| G25C G41A | 0.123 |
| U26A A60G | 0.478 |
| U26A A60U | 0.377 |
| G25U A42U | 0.163 |
| G25U A42C | 0.17 |
| G25C C34A | 0.197 |
| G25C C34G | 0.14 |
| G25C U44A | 0.188 |
| G25C C57A | 0.14 |
| G25A U55G | 0.235 |
| G25A U55C | 0.152 |
| G25A A40U | 0.153 |

| Variant | self-cleavage |
| --- | --- |
| G25A A40C | 0.178 |
| G25U G48A | 0.176 |
| G25U G48C | 0.215 |
| G25U G48U | 0.155 |
| C24U U49G | 0.762 |
| U26A C29G | 0.307 |
| G25U C34U | 0.151 |
| G25U C34G | 0.196 |
| G25A G28C | 0.131 |
| C24U U67C | 0.833 |
| C24U U67G | 0.761 |
| G25C A40C | 0.173 |
| G25C A40G | 0.158 |
| G25C A40U | 0.176 |
| G25A U36G | 0.176 |
| G25A U36A | 0.184 |
| G25A U36C | 0.292 |
| G25A G47A | 0.175 |
| G25A U67G | 0.266 |
| G25A U67C | 0.133 |
| G25C U67A | 0.129 |
| G25C U67G | 0.24 |
| G25C U36G | 0.217 |
| G25A C33A | 0.206 |

| Variant | self-cleavage |
| --- | --- |
| G25A C33G | 0.206 |
| G25A C33U | 0.276 |
| G25C G28U | 0.16 |
| G25C G28A | 0.14 |
| G25U U53G | 0.226 |
| G25U U53A | 0.166 |
| G25U U53C | 0.112 |
| G25A A42G | 0.203 |
| G25A A42C | 0.161 |
| G25A A42U | 0.178 |
| G25U G28A | 0.141 |
| G25U G28C | 0.159 |
| U26A A40G | 0.7 |
| U26A A40C | 0.32 |
| G25A U53A | 0.171 |
| G25A U53G | 0.169 |
| G25A U53C | 0.206 |
| G25U G47C | 0.11 |
| C24U U38C | 0.582 |
| C24U U38A | 0.418 |
| G25A G58U | 0.218 |
| G25A G58C | 0.159 |
| G25A G58A | 0.22 |
